Reference: the supplement of paper PMC9732359
± gives the uncertainty stated by the source.

assay: protein stability index of a GFP-peptide fusion (yeast GPS) (PSI 1-4); higher = more stable; sorted into four equal gates, so the index is relative within each strain; details: pdr5∆
Procedure, shortened: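 The protein stability index combines read frequencies across sorting gates, each weighted by its gate number and then summed. To obtain those frequencies, a pooled yeast library of GFP fusions to tiled 17-residue yeast protein peptides, on a plasmid also expressing Cherry, was grown to mid-log phase in leucine-free medium. The cells were sorted into four equal gates by GFP/Cherry ratio before plasmid amplification by PCR and Illumina sequencing.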

Row | Sequence | protein stability index
1 | LKKANIIYHTTFSWLNA [YLR018C/POM34] | 2.45 ± 0.044
2 | LKKGEVSLGTSIMAVTF [PRE3] | 1.67 ± 0.23

same assay, conditions: san1∆

Row | Sequence | protein stability index
3 | KYIVKASSGPRYIVGVR [RPT4] | 3.4 ± 0.089
4 | KYMVKGGLSGEESIKIY [UBP6] | 2.36 ± 0.093
5 | KYQKALHYLKKFKHIDD [SRP72] | 2.57 ± 0.17
6 | KYREGQVLFQGLIYSFN [POP1] | 2.46 ± 0.065
7 | KYRPETAAEKKERLTKE [RPL8A] | 3.12 ± 0.056
8 | LAAPQLVQMYIGEGAKL [RPT5] | 2.48 ± 0.26
9 | LADDLITKMLASDESLL [RPN2] | 1.86 ± 0.14
10 | LAEIKKTPLLKQYLSAS [RPL6B] | 1.24 ± 0.094
11 | LAFAKLVHSEYLINGKR [SRP68] | 2.15 ± 0.082
12 | LAFKKNEMLLKRVTKVK [MTW1] | 2.31 ± 0.12
13 | LAIDNMYILGMCVSKGN [YCG1] | 2.27 ± 0.089
14 | LAKYRDAGKIDKHLYHV [RPL19A] | 1.27 ± 0.28
15 | LALENGEITKTENEKFI [NUT1] | 3.44 ± 0.066
16 | LALMTAHSLSPKDYIKK [CDC53] | 3.25 ± 0.04
17 | LAMEAILNELEVFIGRV [YJR042W/NUP85] | 2.76 ± 0.15
18 | LANWFLEVYASGNPNAT [YML031W/NDC1] | 2.37 ± 0.075
19 | LAQTLKLWRKIARLYSC [RRI2] | 1.34 ± 0.096
20 | LARACAAQTNATFLKLA [RPT5] | 2.93 ± 0.099
21 | LASEVGDPALVYKFMSL [ECM29] | 2.34 ± 0.093
22 | LATYCPRVQGFYVPQAR [GRR1] | 2.03 ± 0.09
23 | LAVLALVIVKKGEQELE [RPS6A] | 2 ± 0.072
24 | LAYRNYWTQYLGLFIHK [YJL039C/NUP192] | 1.9 ± 0.055
25 | LCKTKMVCETDVPSEDD [RPO21] | 3.25 ± 0.074
26 | LDALTRHIKSKHEDLSL [RPN4] | 1.57 ± 0.089
27 | LDDPEAVSKDPLLTKRK [DIS3] | 3.34 ± 0.094
28 | LDDTTIPVGLMAQENSM [MCD1] | 1.56 ± 0.17

Row | Sequence | protein stability index
29 | LDIGLQRTTTGARVFGA [RPL5] | 1.31 ± 0.13
30 | LDIKRVGSENVECTISI [SNF12] | 2.56 ± 0.056
31 | LDKDSSQSSAAAGASVD [RPN6] | 3.02 ± 0.075
32 | LDNSKMDYHFIFSYLQF [RGR1] | 1.89 ± 0.047
33 | LDSLMKTTRLLLIIRSL [YJL039C/NUP192] | 1.32 ± 0.077
34 | LDSNNNNSNSNNNDNNN [SWI1] | 2.79 ± 0.028
35 | LDTYRERSKQLNEKFQE [SMC2] | 3.37 ± 0.12
36 | LEACIVRIMKAKRNLPH [CDC53] | 1.3 ± 0.13
37 | LEAKRKVSSAEYYAKKR [RPL16A] | 2.86 ± 0.11
38 | LEALRQNYRLDGRSFDQ [RRP45] | 1.61 ± 0.14
39 | LEDDSLLSYPIKLDRWL [RPN12] | 2.99 ± 0.072
40 | LEDFENFKGLAKEKERM [YIL149C/MLP2] | 3.42 ± 0.054
41 | LEDLFSYRNGMASYMLN [YJR042W/NUP85] | 1.89 ± 0.13
42 | LEEEFVSNSEILKPFEK [RPT2] | 3.05 ± 0.073
43 | LEEKILAKKTHKQELQD [SMC4] | 2.88 ± 0.072
44 | LEEQQQLEDESSRLEFV [YML103C/NUP188] | 3.39 ± 0.06
45 | LEGETDPLRIAMKELAE [RPO26] | 3.27 ± 0.1
46 | LEGITTTIDSLNAELES [SMC3] | 2.27 ± 0.17
47 | LEHDVEYRPFSKKVLEC [DIS3] | 3.48 ± 0.07
48 | LEIAKDFQPTELFDILS [IRR1] | 2.8 ± 0.079
49 | LEIASSIDCLLILILVI [SWI1] | 2.34 ± 0.074
50 | LEKIHSIEVQSLPEFFT [SWI3] | 2.43 ± 0.12
51 | LEKKGFSEVYEYNRLKV [LIN1] | 3.28 ± 0.1
52 | LERFNKRADISKRRITE [SMC1] | 2.96 ± 0.17
53 | LESFQAVYNKLTGKQIV [RPS7A] | 1.28 ± 0.098
54 | LESSITDAGVLALKLEL [YJL039C/NUP192] | 1.3 ± 0.13

Row | Sequence | protein stability index
55 | LETILEEFRNLAALNVW [SSN2] | 2.52 ± 0.11
56 | LETLFNRWHSESWANQL [FAS2] | 2.87 ± 0.055
57 | LFGNNNTNNINNSSSGM [YGL172W/NUP49] | 3 ± 0.12
58 | LFHSCTRIQYVDFACCT [GRR1] | 2.2 ± 0.075
59 | LFKTLFKKLTKDIFRYM [RPB2] | 1.33 ± 0.13
60 | LFRAIYLYCLDNNITEM [YCG1] | 2.1 ± 0.061
61 | LFYFDSSFRPCPLSQQF [BRR2] | 2.68 ± 0.061
62 | LGDKELWPVAIGLIALS [YJR042W/NUP85] | 1.64 ± 0.27
63 | LGDMENNLEKYPFRYKT [RTT102] | 3.46 ± 0.042
64 | LGHKELKVRKGHIAKLM [RPB2] | 1.97 ± 0.1
65 | LGKFKNIIASPLSAGFN [SIN4] | 1.95 ± 0.09
66 | LGKVRFANYKLLLKKII [SRB4] | 1.43 ± 0.14
67 | LGKWYSKEDYETLKRDR [ARP7] | 3.33 ± 0.16
68 | LGLGIAFAGSKNDEVLG [RPN1] | 2.81 ± 0.26
69 | LGNTVSTQPSFAWSKPS [YGR119C/NUP57] | 2.85 ± 0.077
70 | LGNVIVPNILSLDMNSM [NUT1] | 2.04 ± 0.093
71 | LGRVRNHFIFNVESAGA [RPC40] | 1.62 ± 0.09
72 | LGSKKELGISLEHPYGK [SNU114] | 3.1 ± 0.15
73 | LGVEDITLIDSASLHLN [RET1] | 1.8 ± 0.1
74 | LGVVFGRGGSGWKPYYK [YML031W/NDC1] | 3.4 ± 0.12
75 | LGWIHTQTEELKFMAAS [PRP8] | 2.64 ± 0.063
76 | LHGNAKKAAEEAGVTDV [FAS2] | 3.13 ± 0.12
77 | LHIHGSSNPLGITGNLD [COB] | 2.7 ± 0.05
78 | LHPQLHEVQYQESSSTL [SIN4] | 2.41 ± 0.07
79 | LHPYVPSSKPQEQVYPD [SRB8] | 3.08 ± 0.093
80 | LHVVSKSSIEKDPSPEI [SIN4] | 3.13 ± 0.052

Row | Sequence | protein stability index
81 | LIAVYYSFGGLLMRLEG [RPB8] | 3.07 ± 0.1
82 | LIELLTQMDGFDQSTNV [RPT3] | 1.56 ± 0.15
83 | LIETVFVKNIRMLSFED [RPN9] | 1.78 ± 0.066
84 | LIFIACNDEDKDLETLY [ECM29] | 2.3 ± 0.089
85 | LIIVTRKNYMHVKNFGF [YML031W/NDC1] | 1.51 ± 0.1
86 | LIKNGKKVTAFVPNDGC [RPS23A] | 3.45 ± 0.039
87 | LIKQVPRLLGPQLSKAG [RPL1A] | 1.78 ± 0.081
88 | LIKTLSTLHMLGYTHIA [RPP1] | 2.62 ± 0.099
89 | LINEILLKSNDPLLSLY [RGR1] | 1.87 ± 0.077
90 | LIQQVPPGLDALVKPET [CDC53] | 2.83 ± 0.13
91 | LIRLQMEKLDAKLNHLK [SWI3] | 2.85 ± 0.15
92 | LISGKAGVLNGTLEYGT [RET1] | 3.02 ± 0.063
93 | LISLIMTTWRKLYTKEL [YMR129W/POM152] | 1.42 ± 0.17
94 | LISRMIFIATQLEKKIR [BRR2] | 1.28 ± 0.12
95 | LKALSHHYNPKTKKLNL [BRR2] | 2.33 ± 0.11
96 | LKEILNVAKNMKTPSLT [RPO21] | 3.1 ± 0.072
97 | LKESYSQKHNGRILKWL [CDC53] | 2.34 ± 0.055
98 | LKETVIPSLANNGNNST [POP6] | 2.54 ± 0.068
99 | LKFAVQVDKVTKEKVNG [RPL26A] | 2.71 ± 0.11
100 | LKFNSTEYRGTLVSTDN [SMX3] | 2.27 ± 0.067
101 | LKFVKVRVRTTKIPQIG [RPB2] | 2.85 ± 0.13
102 | LKGLNGFPSAPQPLFME [YMR153W/NUP53] | 2.85 ± 0.067
103 | LKGRVVEVCLADLQGSE [RPS1A] | 2.51 ± 0.076
